Data reported in article PMC4551322 (Molecular Biology of the Cell, 2015).

Biological target: the molecule itself
Experiment: velocity sedimentation assay

B1: Drp1 K38A (enzyme)
chain: MEALIPVINKLQDVFNTVGADIIQLPQIVVVGTQSSGASSVLESLVGRDLLPRGTGIVTRRPLILQLVHVSQEDKRKTTGEENGVEAEEWGKFLHTKNKLYTDFDEIRQEIENETERISGNNKGVSPEPIHLKIFSPNVVNLTLVDLPGMTKVPVGDQPKDIELQIRELILRFISNPNSIILAVTAANTDMATSEALKISREVDPDGRRTLAVITKLDLMDAGTDAMDVLMGRVIPVKLGIIGVVNRSQLDINNKKSVTDSIRDEYAFLQKKYPSLANRNGTKYLARTLNRLLMHHIRDCLPELKTRINVLAAQYQSLLNSYGEPVDDKSATLLQLITKFATEYCNTIEGTAKYIETSELCGGARICYIFHETFGRTLESVDPLGGLNTIDILTAIRNATGPRPALFVPEVSFELLVKRQIKRLEEPSLRCVELVHEEMQRIIQHCSNYSTQELLRFPKLHDAIVEVVTCLLRKRLPVTNEMVHNLVAIELAYINTKHPDFADACGLMNNNIEEQRRNRLARELPSAVSRDKVASGGGGVGDGVQEPTTGNWRGMLKTSKAEELLAEEKSKPIPIMPASPQKGHAVNLLDVPVPVARKLSAREQRDCEVIERLIKSYFLIVRKNIQDSVPKAVMHFLVNHVKDTLQSELVGQLYKSSLLDDLLTESEDMAQRRKEAADMLKALQGASQIIAEIRETHLW
  binding result: binds
